The target in this assay is T1, AP-2 α appendage (mouse, UniProt P17427 701-938).
T1 construct: AP-2 αC subunit appendage, mouse, residues 701–938; It was added soluble to glutathione-Sepharose pull-downs, so GST was probably removed; also called αC appendage (mouse residues 701–938); purified AP-2 α appendage; source: purified (from the GST-αC appendage construct described previously)
Nature of the assay: pull-down; ~200 μg GST fusion on glutathione-Sepharose; rat brain cytosol supplemented with 5 μM or 25 μM purified AP-2 α appendage; recovery of the added α appendage in the pellets. The following applies: both partners purified.

T1 sequence (P17427 701-938): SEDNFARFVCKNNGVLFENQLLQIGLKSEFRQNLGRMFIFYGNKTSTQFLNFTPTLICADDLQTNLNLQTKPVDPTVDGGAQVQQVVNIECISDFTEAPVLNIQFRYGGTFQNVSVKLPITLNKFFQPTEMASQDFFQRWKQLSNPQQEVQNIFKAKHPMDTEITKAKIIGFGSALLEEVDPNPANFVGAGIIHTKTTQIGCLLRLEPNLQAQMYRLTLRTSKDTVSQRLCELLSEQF

B1: GST-EPS15 (595–740) (domain or fragment, UniProt P42566 595-740, looked up)
chain: SKEEDPFNVDSSSLTGPVADTNLDFFQSDPFVGSDPFKDDPFGKIDPFGGDPFKGSDPFASDCFFRQSTDPFATSSTDPFSAANNSSITSVETLKHNDPFAPGGTVVAASDSATDPFASVFGNESFGGGFADFSTLSKVNNEDPFR
notes: also called GST-EPS15 fusion; C-terminal region of EPS15; source: purified GST fusion (purification described in Umasankar et al., 2012)
On to B1, for which the binding result was “binds”.
